{
  "source": "patent US20240115720A1",
  "about": "“ANTIBODY-PYRROLOBENZODIAZEPINE DERIVATIVE CONJUGATE” (MEMORIAL SLOAN KETTERING CANCER CENTER, priority 2021, published 2024)",
  "molecules": {"B1": {"name": "2-C8-A: anti-DLL3 monoclonal antibody, VH SEQ ID NO: 12 and VL SEQ ID NO: 17 (antibody, V domains shown)", "VH": "EVQLVESGGGLVQPGGSQRLSCAASGFTFSSYWMNWVRQAPGKGLEWVANIKEDGSEKYYVDSVKGRFTISRDNAKNSLYLQMNSLRAEDTAVYYCARDPGWAPFDYWGQGTLVTVSS", "VL": "DIQMSQSPSSLSASVGDRVTITCRASQGISNYLAWFQQKPGKAPKSLIYAASSLQSGVPSKFSGSGSGTDFTLAISSLQPEDFATYYCQQYNSFPYTFGQGTTLEIK"}},
  "key": {"DLL3 [1]": {"biological_target": "T1, DLL3 (Homo sapiens, UniProt Q9NYJ7)", "T1 sequence (Q9NYJ7 27-618)": "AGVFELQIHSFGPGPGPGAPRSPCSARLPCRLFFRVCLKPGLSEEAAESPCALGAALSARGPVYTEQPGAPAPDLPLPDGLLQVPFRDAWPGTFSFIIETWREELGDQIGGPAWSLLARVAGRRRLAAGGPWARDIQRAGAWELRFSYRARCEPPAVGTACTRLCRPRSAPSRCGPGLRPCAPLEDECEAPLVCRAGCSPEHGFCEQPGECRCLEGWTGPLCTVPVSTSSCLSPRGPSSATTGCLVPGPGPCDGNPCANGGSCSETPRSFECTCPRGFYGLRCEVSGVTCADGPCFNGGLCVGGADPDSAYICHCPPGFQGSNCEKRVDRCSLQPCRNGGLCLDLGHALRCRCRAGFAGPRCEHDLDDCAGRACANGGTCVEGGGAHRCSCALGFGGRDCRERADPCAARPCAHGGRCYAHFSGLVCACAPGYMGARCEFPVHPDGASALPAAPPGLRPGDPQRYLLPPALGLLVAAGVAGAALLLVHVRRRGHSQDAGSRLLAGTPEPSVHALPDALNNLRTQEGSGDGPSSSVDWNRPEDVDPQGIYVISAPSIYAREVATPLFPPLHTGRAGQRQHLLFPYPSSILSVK", "test": "4/37 internalization assay (staining at 4° C. versus 37° C., flow cytometry)", "type": "cell-based", "design": "endogenous in cells; host or cells: NCI-H82", "settings": "NCI-H82 cells, compared with reference monoclonal antibody SC16", "experimental": "The four monoclonal antibodies (6-G23-F, 2-C8-A, 7-I1-B and 10-O18-A) were compared for their ability to internalize DLL3 by comparing the staining at 4° C. with that at 37° C. A reference monoclonal antibody SC16, which is known to internalize via DLL3 and to have ADC activity, and which was previously reported in the literature, was used as the positive control for internalization. NCI-H82 cells in exponential growth were harvested with trypsin/EDTA, washed once in RPMI containing 10% fetal calf serum (FCS) and resuspended in DMEM supplemented with 10% FCS at 2×10^7 cells/ml. 100 μl (2×10^6 cells) were added to U bottom 96 well plates. The test monoclonal antibodies (6-G23-F, 2-C8-A, 7-I1-B or 10-O18-A) or the reference monoclonal antibody were added to separate wells to give a final concentration of 10 μg/ml in duplicate plates. […] After 30 minutes incubation at 4° C. the cells were washed three times in cold wash buffer and either fixed in PBS 0.5% paraformaldehyde and analyzed by flow cytometry within 48 hours. The mean fluorescent intensity (MFI) ratios calculated by dividing the MFI obtained from the control plate (which incubated with the antibodies at 4° C.) by the corresponding MFI obtained from the experimental plate (which incubated with the antibodies at 37° C.) was taken as a relative measure of internalization. […]"}, "DLL3 [2]": {"biological_target": "T1, DLL3", "test": "Selectivity of binding among delta-like ligands (FIG. 11)"}, "DLL1": {"biological_target": "T2, DLL1 (Homo sapiens, UniProt O00548)", "T2 sequence (O00548 18-723)": "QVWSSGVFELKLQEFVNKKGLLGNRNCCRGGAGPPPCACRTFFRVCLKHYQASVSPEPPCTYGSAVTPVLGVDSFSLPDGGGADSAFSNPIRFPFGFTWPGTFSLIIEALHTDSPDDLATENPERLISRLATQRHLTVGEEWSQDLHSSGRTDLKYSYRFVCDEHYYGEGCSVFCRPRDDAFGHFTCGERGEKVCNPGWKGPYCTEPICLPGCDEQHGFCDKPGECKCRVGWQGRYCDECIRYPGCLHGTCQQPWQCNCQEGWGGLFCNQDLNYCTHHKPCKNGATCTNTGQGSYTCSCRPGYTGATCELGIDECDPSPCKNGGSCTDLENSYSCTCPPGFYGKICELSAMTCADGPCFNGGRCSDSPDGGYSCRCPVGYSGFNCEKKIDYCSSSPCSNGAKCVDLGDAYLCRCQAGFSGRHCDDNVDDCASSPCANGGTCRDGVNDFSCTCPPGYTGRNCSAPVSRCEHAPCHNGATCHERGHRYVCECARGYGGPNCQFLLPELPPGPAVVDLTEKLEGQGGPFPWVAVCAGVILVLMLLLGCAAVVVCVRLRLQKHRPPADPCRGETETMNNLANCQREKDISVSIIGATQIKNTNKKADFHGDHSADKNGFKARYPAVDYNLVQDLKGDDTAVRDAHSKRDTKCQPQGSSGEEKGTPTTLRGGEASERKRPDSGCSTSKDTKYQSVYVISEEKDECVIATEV", "test": "Selectivity of binding among delta-like ligands (FIG. 11)"}, "293 (negative control)": {"tested_on": "293 (negative control)", "test": "Flow cytometry binding to 293 cells (negative control)", "settings": "10 μg/ml", "experimental": "The four monoclonal antibodies (6-G23-F, 2-C8-A, 7-I1-B and 10-O18-A) were tested for their ability to bind to mouse and cynomolgous DLL3 as well as endogenous human DLL3 by flow cytometry. For this purpose, HEK293 cells were transfected with plasmid DNA encoding full-length human, mouse or cynomolgous DLL3 and used in the experiment. Briefly […] transfected HEK293 cells or NCI-H82 primary cells were added in FACS buffer PBS 0.5% BSA to the wells of a 96 well U bottom plate and purified monoclonal added to 10 μg/ml. After 30 minutes incubation at 4° C. the cells were washed 3 times in FACS buffer and incubated with a PE labelled F(ab)2 anti-mouse IgG H and L 2nd stage. After another 30 minutes incubation at 4° C. the cells were washed three times in FACS buffer and analyzed on the flow cytometer. Data are presented at the ratio of the Mean Fluorescent Intensity for the monoclonal divided by the background staining with the 2nd stage."}, "[3]": {"biological_target": "T3, Histidine-tagged DLL3 antigen (DLL3-His) (Homo sapiens, UniProt Q9NYJ7)", "T3 sequence (Q9NYJ7 27-479)": "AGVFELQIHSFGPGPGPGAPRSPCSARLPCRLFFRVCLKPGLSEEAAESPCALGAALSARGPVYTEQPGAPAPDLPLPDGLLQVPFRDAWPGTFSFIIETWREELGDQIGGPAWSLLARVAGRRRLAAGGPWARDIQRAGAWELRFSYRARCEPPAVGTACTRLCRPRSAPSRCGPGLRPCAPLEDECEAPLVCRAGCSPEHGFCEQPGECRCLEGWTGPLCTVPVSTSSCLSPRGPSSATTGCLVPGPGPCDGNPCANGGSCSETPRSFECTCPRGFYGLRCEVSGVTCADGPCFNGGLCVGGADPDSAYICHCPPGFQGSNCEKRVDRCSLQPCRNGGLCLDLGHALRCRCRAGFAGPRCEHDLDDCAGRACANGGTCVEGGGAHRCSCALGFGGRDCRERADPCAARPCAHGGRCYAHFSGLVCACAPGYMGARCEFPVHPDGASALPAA", "test": "Pairwise epitope binning, Carterra array SPR", "settings": "pairwise competition for binding to DLL3-His", "experimental": "The panel of purified anti-DLL3 monoclonal antibodies and the reference monoclonal antibody were subjected to pairwise epitope binning on a Carterra® array surface plasmon resonance (SPR) assay platform (Carterra® Inc., Salt Lake City UT) where each monoclonal antibody was tested for the capture of Histidine-tagged DLL3 antigen (DLL3-His), and also for competing with every other antibody in the panel for the binding to DLL3-His. The antibodies were immobilized on a HC200M chip (ligand) through standard amine coupling techniques by the print array method. Then in each cycle antigen was injected across the entire array followed by a single antibody (analyte). At the end of each cycle the surface was regenerated to remove antigen and analyte before a new cycle started. As shown in the Table below, three different bins were identified with the panel with 7-I1-B and 2-C8-A mapping to bin 2 while 6-G23-F was in bin 3 and 10-O18-A was in bin 1."}, "DLL4": {"biological_target": "DLL4 (Homo sapiens, UniProt Q9NR61)", "sequence (Q9NR61 27-685)": "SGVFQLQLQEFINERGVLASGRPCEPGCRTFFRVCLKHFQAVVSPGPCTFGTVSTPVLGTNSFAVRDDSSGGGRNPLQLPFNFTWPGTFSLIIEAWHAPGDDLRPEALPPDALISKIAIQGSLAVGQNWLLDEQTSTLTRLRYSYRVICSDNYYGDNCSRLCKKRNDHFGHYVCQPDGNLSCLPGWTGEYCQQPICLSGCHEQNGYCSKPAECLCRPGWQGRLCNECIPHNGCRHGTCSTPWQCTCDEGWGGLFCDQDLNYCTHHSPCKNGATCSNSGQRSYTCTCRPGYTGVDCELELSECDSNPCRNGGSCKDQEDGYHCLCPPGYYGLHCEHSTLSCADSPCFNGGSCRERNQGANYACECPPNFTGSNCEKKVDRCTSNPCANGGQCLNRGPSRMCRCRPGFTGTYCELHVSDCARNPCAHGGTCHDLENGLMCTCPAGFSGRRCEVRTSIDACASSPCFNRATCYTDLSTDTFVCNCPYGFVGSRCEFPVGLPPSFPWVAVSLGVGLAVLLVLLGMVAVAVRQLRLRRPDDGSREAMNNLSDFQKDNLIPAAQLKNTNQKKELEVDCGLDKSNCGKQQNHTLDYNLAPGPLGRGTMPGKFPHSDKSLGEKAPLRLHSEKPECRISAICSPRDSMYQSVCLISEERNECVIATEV", "test": "Selectivity of binding among delta-like ligands (FIG. 11)"}},
  "data": [
    {"molecule": "B1", "values": [
      {"measurement": "ability to internalize DLL3", "setting": "DLL3 [1]", "result": "able to internalize on binding DLL3 but not to the extent of the reference monoclonal antibody"},
      {"measurement": "binding to DLL3", "setting": "DLL3 [2]", "result": "selectively bind DLL3"},
      {"measurement": "binding to DLL1", "setting": "DLL1", "result": "not DLL1 or DLL4"},
      {"measurement": "293 (negative control) (ratio of MFI for the monoclonal divided by background staining with the 2nd stage)", "setting": "293 (negative control)", "result": 0.59},
      {"measurement": "Epitope Bin", "setting": "[3]", "result": 2},
      {"measurement": "binding to DLL4", "setting": "DLL4", "result": "not DLL1 or DLL4"}
    ]}
  ]
}
